Test [1] addresses T1, C3d, source and species not stated.
T1 construct: domain: C3d; also called 3d antigen; target C3d antigen
Description: radiolabeled antibody; method and antigen not stated.

The target of test [2] is T2, recombinant murine C3d (murine, UniProt P01027 996-1303, limits assumed).
T2 construct: domain: C3d; also called mouse C3d
The test is described as follows: direct ELISA. The method, then:
To confirm that the antibodies reacted with C3d and not with a contaminant in the immunogen, the antibodies were tested against the C3d using a sandwich ELISA in which the recombinant C3d was captured with a polyclonal anti-C3d capture antibody (Table 2). To test reactivity of the clones against murine C3d we performed indirect and sandwich ELISAs using recombinant murine C3d. We also performed direct ELISAs to test binding of the antibodies to recombinant human C3d from a second construct, purified human C3d, and to recombinant cynomologous C3d.
To assess reactivity of antibodies against C3d, ELISAs were performed using purified forms of C3 activation fragments from several different sources (see Reagents section above). Direct ELISAs were performed by affixing 30-50 ng of the C3 fragment to the ELISA plate overnight at 4° C. The plates were blocked with 1% bovine serum albumin in PBS for 2 hours at room temperature. Bound antibodies were then detected with HRP-conjugated anti-mouse IgG (MP Biomedicals, Solon, Ohio). Sandwich ELISAs were performed by incubating polyclonal anti-human C3d antibody (Dako USA, Carpinteria, Calif.) to the ELISA plates in order to capture the C3d. Binding of the antibodies to the captured C3d was then detected as above.

In test [3] the target is T3, recombinant human C3d (human, UniProt P01024 996-1303, limits assumed).
T3 construct: domain: C3d; also called wild-type C3d; the C3d immunogen
T3 sequence (P01024 996-1303 limits assumed): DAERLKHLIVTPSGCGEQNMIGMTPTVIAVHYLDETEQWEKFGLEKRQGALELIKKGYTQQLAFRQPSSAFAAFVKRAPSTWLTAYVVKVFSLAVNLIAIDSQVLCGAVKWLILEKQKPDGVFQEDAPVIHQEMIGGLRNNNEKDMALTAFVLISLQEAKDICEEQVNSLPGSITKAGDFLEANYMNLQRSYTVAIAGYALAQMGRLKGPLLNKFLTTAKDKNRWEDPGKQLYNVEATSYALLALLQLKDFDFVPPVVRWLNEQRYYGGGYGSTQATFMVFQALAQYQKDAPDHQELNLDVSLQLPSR
The test is described as follows: SPR, recombinant human C3d fixed to a CM5 chip. The method, then: FIGS. 12A-12C. […] Surface plasmon resonance was performed using recombinant human C3d fixed to a CM5 chip.
The affinity of clones 3d8b, 3d9, and 3d29 for C3d were tested by surface plasmon resonance (FIG. 12).

T2 sequence (P01027 996-1303 limits assumed): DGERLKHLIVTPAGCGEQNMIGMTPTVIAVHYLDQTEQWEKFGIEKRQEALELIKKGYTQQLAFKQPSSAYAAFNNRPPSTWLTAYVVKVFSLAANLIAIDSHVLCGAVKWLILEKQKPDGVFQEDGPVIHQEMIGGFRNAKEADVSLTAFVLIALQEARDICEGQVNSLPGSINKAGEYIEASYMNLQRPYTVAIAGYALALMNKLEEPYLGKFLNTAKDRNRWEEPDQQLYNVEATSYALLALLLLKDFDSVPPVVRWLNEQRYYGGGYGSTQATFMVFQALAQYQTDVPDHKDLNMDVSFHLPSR
T1 sequence (P01024 1002-1303): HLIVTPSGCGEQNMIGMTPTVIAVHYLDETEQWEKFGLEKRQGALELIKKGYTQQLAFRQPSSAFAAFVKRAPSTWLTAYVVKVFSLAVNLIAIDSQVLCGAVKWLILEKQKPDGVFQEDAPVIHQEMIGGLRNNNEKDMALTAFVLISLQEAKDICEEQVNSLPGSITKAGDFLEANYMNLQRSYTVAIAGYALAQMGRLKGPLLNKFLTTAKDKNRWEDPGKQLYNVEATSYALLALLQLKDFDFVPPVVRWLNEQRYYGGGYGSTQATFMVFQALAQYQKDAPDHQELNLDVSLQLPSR

B1: mouse monoclonal antibody 3d29 (antibody, mouse IgG2a, V domains shown)
VH: EVQLQQSGPVLVKPGASVKMSCKASGYTFTDYYMNWVKQSHGKSLEWIGVINPYNGGTSYNQKFKGKATLTVDKSSRTAYMELNSLTSEDSAVYYCSRGGPYWGQGTTLTVSS
VL: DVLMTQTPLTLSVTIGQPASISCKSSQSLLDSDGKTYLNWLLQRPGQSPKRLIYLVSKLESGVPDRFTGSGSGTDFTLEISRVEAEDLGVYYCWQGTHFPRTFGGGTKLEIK
notes: Mouse IgG2a/c (Group I clone); Also used FITC-labelled, biotinylated, radiolabeled and conjugated to SPIO nanoparticles; also called C3d29; 3d29a
Regarding B1, the dissociation constant (Kd) in test [1] worked out at 0.43 nM; in test [3], 1.06 nM. Besides, the binding result in test [2] is given as “binds”.
